Reference: paper PMC6389858

Experiments:
[1] = target: T1, OxyR (Escherichia coli K12 BW25113?) (UniProt P0ACQ4); experiment: competition; conditions: EMSA: 10 mM HEPES pH 7.3, 20 mM KCl, 1 mM MgCl2, 5% glycerol, poly dI-dC, NP-40, 25 C, 2 h; 6% DNA retardation gel
T1 sequence: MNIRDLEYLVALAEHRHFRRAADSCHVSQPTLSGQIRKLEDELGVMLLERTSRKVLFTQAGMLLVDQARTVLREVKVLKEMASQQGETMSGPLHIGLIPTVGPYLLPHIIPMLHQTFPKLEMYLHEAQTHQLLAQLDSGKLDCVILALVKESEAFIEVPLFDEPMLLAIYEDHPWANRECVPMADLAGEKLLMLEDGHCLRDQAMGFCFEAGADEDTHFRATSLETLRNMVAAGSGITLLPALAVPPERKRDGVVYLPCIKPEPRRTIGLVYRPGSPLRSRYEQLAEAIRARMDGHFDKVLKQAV

[2] = target: T1, OxyR (Escherichia coli K12 BW25113?); experiment: EMSA; conditions: EMSA: 10 mM HEPES pH 7.3, 20 mM KCl, 1 mM MgCl2, 5% glycerol, poly dI-dC, NP-40, 25 C, 2 h; 6% DNA retardation gel

## ACTGGCCTGATAAGCCTGTTTACCTCGGGGCGCAGGCGCATCTGCAAAACTTCTACCAGAGTTTCGGTTTTATCCCTGTGACGGAGGTCTATGAAGAAGATGGTATCCCACACATTGGGATGGCACGCGAGGTAATTCAGGCGTAATCAACAACCCTTGTCTATAGTTAGTGACAGGTTTTACGCAAATGGAGAACGAGA (double strand) [PelaB-S (elaB promoter probe with OxyR binding site 2)]
[1]
  binding: binds
[2]
  binding: binds
